Measurements reported in PMC12022753, “Mechanism of Cas9 inhibition by AcrIIA11”.

Assays:
[1] = target: SaCas9;AcrIIA11 (Staphylococcus aureus;) (UniProt J7RUA5); assay: single-molecule DNA curtains; conditions: 100 mM KCl, 5 mM MgCl2, 1 mM DTT, 37 C, sgRNA EMSA: 20 mM Tris-HCl pH 8, 5% glycerol, 1 mM NaCl
[2] = target: T1, SaCas9 (Staphylococcus aureus, UniProt J7RUA5 1-1053); assay: single-molecule DNA curtains; conditions: EMSA: 20 mM Tris-HCl pH 8, 5% glycerol, 100 mM KCl, 5 mM MgCl2, 1 mM DTT, 37 C, 1 mM NaCl
T1 sequence: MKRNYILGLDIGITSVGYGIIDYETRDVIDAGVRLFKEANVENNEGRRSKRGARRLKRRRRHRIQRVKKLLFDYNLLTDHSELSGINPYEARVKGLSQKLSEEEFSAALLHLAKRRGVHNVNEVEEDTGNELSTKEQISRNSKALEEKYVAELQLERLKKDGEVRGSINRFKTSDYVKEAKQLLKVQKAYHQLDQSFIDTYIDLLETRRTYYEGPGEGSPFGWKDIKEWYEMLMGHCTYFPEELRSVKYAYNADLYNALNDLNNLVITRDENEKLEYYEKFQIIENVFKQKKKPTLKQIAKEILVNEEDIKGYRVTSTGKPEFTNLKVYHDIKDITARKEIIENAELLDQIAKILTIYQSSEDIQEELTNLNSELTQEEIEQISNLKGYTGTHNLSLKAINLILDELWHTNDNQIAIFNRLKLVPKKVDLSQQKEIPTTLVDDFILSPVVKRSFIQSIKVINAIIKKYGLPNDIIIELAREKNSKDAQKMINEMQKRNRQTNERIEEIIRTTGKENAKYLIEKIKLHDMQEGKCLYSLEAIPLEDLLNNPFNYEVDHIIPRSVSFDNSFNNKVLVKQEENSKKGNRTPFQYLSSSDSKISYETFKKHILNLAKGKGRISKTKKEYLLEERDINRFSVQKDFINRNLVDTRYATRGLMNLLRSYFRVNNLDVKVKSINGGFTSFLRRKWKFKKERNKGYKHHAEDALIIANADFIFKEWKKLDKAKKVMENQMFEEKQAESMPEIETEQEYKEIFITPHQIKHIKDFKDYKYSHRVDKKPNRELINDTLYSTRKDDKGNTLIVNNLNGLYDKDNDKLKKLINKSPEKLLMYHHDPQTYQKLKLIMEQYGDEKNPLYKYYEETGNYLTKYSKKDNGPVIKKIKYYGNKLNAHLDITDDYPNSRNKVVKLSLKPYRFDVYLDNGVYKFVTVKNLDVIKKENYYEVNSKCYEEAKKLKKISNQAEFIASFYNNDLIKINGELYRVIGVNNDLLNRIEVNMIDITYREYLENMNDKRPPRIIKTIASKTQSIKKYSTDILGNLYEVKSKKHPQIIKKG

[3] = target: dSaCas9 (nuclease-dead SaCas9);AcrIIA11 D10A;N580A (Staphylococcus aureus;) (UniProt J7RUA5); assay: EMSA; conditions: 100 mM KCl, 5 mM MgCl2, 1 mM DTT, 37 C, sgRNA EMSA: 20 mM Tris-HCl pH 8, 5% glycerol, 1 mM NaCl
[4] = target: AcrIIA11-6xHis; assay: negative-stain electron microscopy; SaCas9 RNP mixed with ~2-fold excess of AcrIIA11-6xHis, passed over Superose 6 (peak eluted at a higher molecular weight than SaCas9 RNP); 200 mM NaCl, 25 mM HEPES pH 7.5, 5% glycerol, 2 mM DTT; low-resolution 3D reconstruction from 16 761 particles with the SaCas9 RNP crystal structure docked
[5] = target: T1, SaCas9; assay: EMSA; RNP preformed with 490 nM SaCas9; EMSA: 20 mM Tris-HCl pH 8, 5% glycerol, 100 mM KCl, 5 mM MgCl2, 1 mM DTT, 37 C; sgRNA EMSA: 20 mM Tris-HCl pH 8, 5% glycerol, 1 mM NaCl, 1 mM DTT, 37 C; curtains (dSaCas9): 40 mM Tris-HCl pH 8, 2 mM MgCl2, 100 mM NaCl, 1 mM DTT, 0.2 mg/ml BSA; conditions: protein: recombinant, tags: N-terminal 3xFLAG, 6xHis-TwinStrep-SUMO removed, label: 5'-32P

In the case of “lambda DNA with scrambled sgRNA (no target)”, the binding signal ([1]; scrambled sgRNA, AcrIIA11, EMSA: 20 mM Tris-HCl pH 8, 5% glycerol) is reported as 98 s (lifetime) and the binding signal (s (half-dissociation lifetime)) ([2]; scrambled sgRNA) is reported as 61.

In the case of “AAGAACGCCTCGCACACTCTTTTGACTTGATCGGCACGTAAGAGGTTCCAACTTTCACCATAATGAAATAAGATCACTACTTGGGTTATTTTTTGAGTTATCGAGATTTTCAGACTCTGTTATTCGGCGGTT (double strand) [SMART PCR DNA with noncomplementary sgRNA]”, the binding signal ([3]; 2 uM AcrIIA11, noncomplementary, EMSA: 20 mM Tris-HCl pH 8, 5% glycerol) is reported as 32 % DNA bound.

“48.5 kb DNA (lambda) with 29.4 kb-target sgRNA” was tested, and the binding signal (% of molecules at target within 90 s) ([1]; EMSA: 20 mM Tris-HCl pH 8, 5% glycerol) was 12 and the binding signal (% of molecules at target within 90 s) ([2]; sgRNA EMSA: 20 mM Tris-HCl pH 8, 5% glycerol) was 43.

“TTTGGGTATTGGGTATTGGGTTTTGGGTTTGGGTTATTTT (double strand) [5x strong PAM DNA (KD201/KD202), nontarget]” was tested, and the binding signal ([3]; 25 nM dSaCas9 and sgRNA, 5 uM AcrIIA11, EMSA: 20 mM Tris-HCl pH 8, 5% glycerol) was 90 % DNA bound.

B1: SaCas9 RNP from TS-SUMO-SaCas9-sgRNA (enzyme)
chain: MKRNYILGLDIGITSVGYGIIDYETRDVIDAGVRLFKEANVENNEGRRSKRGARRLKRRRRHRIQRVKKLLFDYNLLTDHSELSGINPYEARVKGLSQKLSEEEFSAALLHLAKRRGVHNVNEVEEDTGNELSTKEQISRNSKALEEKYVAELQLERLKKDGEVRGSINRFKTSDYVKEAKQLLKVQKAYHQLDQSFIDTYIDLLETRRTYYEGPGEGSPFGWKDIKEWYEMLMGHCTYFPEELRSVKYAYNADLYNALNDLNNLVITRDENEKLEYYEKFQIIENVFKQKKKPTLKQIAKEILVNEEDIKGYRVTSTGKPEFTNLKVYHDIKDITARKEIIENAELLDQIAKILTIYQSSEDIQEELTNLNSELTQEEIEQISNLKGYTGTHNLSLKAINLILDELWHTNDNQIAIFNRLKLVPKKVDLSQQKEIPTTLVDDFILSPVVKRSFIQSIKVINAIIKKYGLPNDIIIELAREKNSKDAQKMINEMQKRNRQTNERIEEIIRTTGKENAKYLIEKIKLHDMQEGKCLYSLEAIPLEDLLNNPFNYEVDHIIPRSVSFDNSFNNKVLVKQEENSKKGNRTPFQYLSSSDSKISYETFKKHILNLAKGKGRISKTKKEYLLEERDINRFSVQKDFINRNLVDTRYATRGLMNLLRSYFRVNNLDVKVKSINGGFTSFLRRKWKFKKERNKGYKHHAEDALIIANADFIFKEWKKLDKAKKVMENQMFEEKQAESMPEIETEQEYKEIFITPHQIKHIKDFKDYKYSHRVDKKPNRELINDTLYSTRKDDKGNTLIVNNLNGLYDKDNDKLKKLINKSPEKLLMYHHDPQTYQKLKLIMEQYGDEKNPLYKYYEETGNYLTKYSKKDNGPVIKKIKYYGNKLNAHLDITDDYPNSRNKVVKLSLKPYRFDVYLDNGVYKFVTVKNLDVIKKENYYEVNSKCYEEAKKLKKISNQAEFIASFYNNDLIKINGELYRVIGVNNDLLNRIEVNMIDITYREYLENMNDKRPPRIIKTIASKTQSIKKYSTDILGNLYEVKSKKHPQIIKKG
In the case of B1, the stoichiometry N [4] is reported as 1.

B2: SaCas9 SMART target sgRNA (structured_RNA)
RNA: UAAUGAAAUAAGAUCACUACGUUUUAGUACUCUGGAAACAGAAUCUACUAAAACAAGGCAAAAUGCCGUGUUUAUCUCGUCAACUUGUUGGCGAGAU
B2: binds [5].
